Assay results from patent US20090238836.

What was measured:
[1] = molecular target: T1, FoxO3a (NP-963853), substrate peptide from a peptide library, O43524
T1 chain: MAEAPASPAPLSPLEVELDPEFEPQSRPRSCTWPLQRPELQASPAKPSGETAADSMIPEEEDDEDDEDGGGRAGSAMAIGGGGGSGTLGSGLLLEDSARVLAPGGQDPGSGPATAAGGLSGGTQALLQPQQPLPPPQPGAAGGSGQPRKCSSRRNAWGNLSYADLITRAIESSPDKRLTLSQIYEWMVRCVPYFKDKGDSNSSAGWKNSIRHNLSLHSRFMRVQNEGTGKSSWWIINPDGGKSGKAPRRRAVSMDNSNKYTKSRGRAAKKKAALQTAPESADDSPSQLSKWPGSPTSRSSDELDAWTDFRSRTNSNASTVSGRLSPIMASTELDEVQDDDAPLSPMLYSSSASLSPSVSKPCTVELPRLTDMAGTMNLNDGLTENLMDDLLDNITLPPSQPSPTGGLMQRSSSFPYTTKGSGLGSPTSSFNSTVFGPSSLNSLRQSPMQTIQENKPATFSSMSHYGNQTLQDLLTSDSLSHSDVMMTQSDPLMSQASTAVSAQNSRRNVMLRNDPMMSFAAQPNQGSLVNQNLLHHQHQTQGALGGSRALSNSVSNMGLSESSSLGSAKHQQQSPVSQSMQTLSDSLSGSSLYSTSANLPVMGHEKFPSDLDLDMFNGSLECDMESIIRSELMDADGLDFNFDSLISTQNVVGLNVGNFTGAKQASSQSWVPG

[2] = molecular target: T2, RBL2 (NM-005611), substrate peptide from a peptide library, Q08999
T2 chain: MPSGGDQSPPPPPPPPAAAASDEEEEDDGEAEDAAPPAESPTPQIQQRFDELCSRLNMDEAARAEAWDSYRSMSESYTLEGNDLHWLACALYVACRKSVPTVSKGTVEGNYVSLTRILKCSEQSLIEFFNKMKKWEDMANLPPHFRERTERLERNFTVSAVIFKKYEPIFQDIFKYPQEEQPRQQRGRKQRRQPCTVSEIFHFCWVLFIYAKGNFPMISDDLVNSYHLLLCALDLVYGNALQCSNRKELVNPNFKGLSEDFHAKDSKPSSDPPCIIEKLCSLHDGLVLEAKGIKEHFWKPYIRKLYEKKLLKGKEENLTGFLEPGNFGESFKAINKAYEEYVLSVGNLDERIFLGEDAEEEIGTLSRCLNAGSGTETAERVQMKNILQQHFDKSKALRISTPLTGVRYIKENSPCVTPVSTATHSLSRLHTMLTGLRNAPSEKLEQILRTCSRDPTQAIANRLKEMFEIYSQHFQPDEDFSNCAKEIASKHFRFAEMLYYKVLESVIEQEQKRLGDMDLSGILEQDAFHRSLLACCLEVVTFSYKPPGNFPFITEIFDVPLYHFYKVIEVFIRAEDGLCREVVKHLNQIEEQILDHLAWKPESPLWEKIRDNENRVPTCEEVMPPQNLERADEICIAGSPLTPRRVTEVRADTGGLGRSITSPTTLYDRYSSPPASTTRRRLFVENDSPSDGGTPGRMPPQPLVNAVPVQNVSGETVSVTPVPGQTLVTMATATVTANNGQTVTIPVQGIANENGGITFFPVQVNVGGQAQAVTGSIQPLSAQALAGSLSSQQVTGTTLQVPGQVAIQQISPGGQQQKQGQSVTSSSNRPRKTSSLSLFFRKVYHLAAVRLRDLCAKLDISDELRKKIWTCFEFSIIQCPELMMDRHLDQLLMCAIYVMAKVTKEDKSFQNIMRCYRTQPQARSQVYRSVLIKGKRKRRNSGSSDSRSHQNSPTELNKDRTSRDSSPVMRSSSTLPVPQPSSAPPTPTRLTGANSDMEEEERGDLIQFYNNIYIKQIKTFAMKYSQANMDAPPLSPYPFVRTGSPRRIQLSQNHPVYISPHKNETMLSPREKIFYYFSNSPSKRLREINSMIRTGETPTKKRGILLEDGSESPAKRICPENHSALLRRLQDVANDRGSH

B1: human Hip kinase 4 (HipK4), recombinant, expressed in Sf9 insect cells (protein)
chain: MSTIQSETDCYDIIEVLGKGTFGEVAKGWRRSTGEMVAIKILKNDAYRNRIIKNELKLLHCMRGLDPEEAHVIRFLEFFHDALKFYLVFELLEQNLFEFQKENNFAPLPARHIRTVTLQVLTALARLKELAIIHADLKPENIMLVDQTRCPFRVKVIDFGSASIFSEVRYVKEPYIQSRFYRAPEILLGLPFCEKVDVWSLGCVMAELHLGWPLYPGNNEYDQVRYICETQGLPKPHLLHAACKAHHFFKRNPHPDAANPWQLKSSADYLAETKVRPLERRKYMLKSLDQIETVNGGSVASRLTFPDREALAEHADLKSMVELIKRMLTWESHERISPSAALRHPFVSMQQLRSAHETTHYYQLSLRSYRLSLQVEGKPPTPVVAAEDGTPYYCLAEEKEAAGMGSVAGSSPFFREEKAPGMQRAIDQLDDLSLQEAGHGLWGETCTNAVSDMMVPLKAAITGHHVPDSGPEPILAFYSSRLAGRHKARKPPAGSKSDSNFSNLIRLSQVSPEDDRPCRGSSWEEGEHLGASAEPLAILQRDEDGPNIDNMTMEAERPDPELFDPSSCPGEWLSEPDCTLESVRGPRAQGLPPRRSHQHGPPRGATSFLQHVTGHH
phosphorylation of library peptides (HTS kinase assay, streptavidin-SPA beads) [1]: The proteins identified as HipK4 substrates with the aid of such an experimental approach are the following, inter alia; FoxO3a (NP-963853) and RBL2 (NM-005611) | phosphorylation of library peptides (HTS kinase assay, streptavidin-SPA beads) [2]: The proteins identified as HipK4 substrates with the aid of such an experimental approach are the following, inter alia; FoxO3a (NP-963853) and RBL2 (NM-005611)
